In article PMC8649762, “A Hyperthermoactive-Cas9 Editing Tool Reveals the Role of a Unique Arsenite Methyltransferase in the Arsenic Resistance System of Thermus thermophilus HB27” (mBio, 2021):
Like-named read-outs stand apart in the source and are kept apart here.

How the values were obtained:
TtArsM (TTC0109) = target: T1, TtArsM (TTC0109) (Thermus thermophilus, UniProt Q72LF0); experiment: coupled colorimetric SAH-release methyltransferase assay, […] nm; products by GC-MS; type: biochemical; conditions: methyl donor; same
T1 construct: gene TT_C0109; full-length, C-terminal His tag (pET30b NdeI/HindIII), E. coli BL21-CodonPlus(DE3)-RIL
T1 sequence (Q72LF0 1-249): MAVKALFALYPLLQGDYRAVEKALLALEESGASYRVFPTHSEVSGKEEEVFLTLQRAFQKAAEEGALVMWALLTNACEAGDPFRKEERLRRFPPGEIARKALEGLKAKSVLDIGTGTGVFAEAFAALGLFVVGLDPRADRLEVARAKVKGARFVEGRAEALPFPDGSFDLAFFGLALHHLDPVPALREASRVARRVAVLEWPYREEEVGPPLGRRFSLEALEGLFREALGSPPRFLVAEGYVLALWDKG

TtSmtB-TtArsM complex = target: T2, TtSmtB-TtArsM complex (Thermus thermophilus, UniProt Q72KG0); type: binding; conditions: 1:100 protein/arsenic ratio, arsenite preincubated with TtSmtB 10 min at 60 °C, co-IP buffer pH 7.5, weakens the protein-protein complex
T2 construct: gene smtB; recombinant TtSmtB (E. coli, C-terminal His tag removed) plus C-terminally His-tagged TtArsM; with Arsenite methyltransferase (ArsR family transcriptional regulator / SAM-dependent methyltransferase domain protein)

[1] = target: T3, TtArsM (Thermus thermophilus HB27) (UniProt Q72LF0); experiment: EMSA; conditions: EMSA: 20 ng parsM, 1 ug poly(dI-dC), SYBR Gold stain; buffer, salt, pH and temperature as in previous work (refs 23, 62), not given
T3 sequence: T1 sequence (Q72LF0 1-249)

[2] = target: the molecule itself; experiment: SEC; 500 μg purified TtArsM on analytical Superdex PC75, 50 mM Tris-HCl pH 7.5, 0.2 M KCl; calibrated with gel filtration markers
[3] = target: T4, Recombinant TtSmtB with the His tag removed (Thermus thermophilus HB27, UniProt Q72KG0 1-123); experiment: co-IP; 5 μg TtSmtB (His tag removed) and 5 μg His-tagged TtArsM in co-IP buffer (50 mM Tris-HCl pH 7.5, 150 mM NaCl, 10% glycerol, 0.1% Triton X-100), 4°C, 2 h; immunoprecipitated with anti-TtSmtB antibodies and protein A-Sepharose, blot with anti-His; with or without arsenite, arsenate, cadmium or antimony at 1:0, 1:25, 1:50, 1:100 molar ratios preincubated with TtSmtB; conditions: both partners purified
T4 construct: TtSmtB, ArsR/SmtB family transcriptional repressor of Thermus thermophilus HB27; source: E. coli BL21-CodonPlus (DE3)-RIL, pET28/TtsmtB, purified; His tag removed; not shown: His tag, C-terminal, cleaved
T4 sequence (looked up): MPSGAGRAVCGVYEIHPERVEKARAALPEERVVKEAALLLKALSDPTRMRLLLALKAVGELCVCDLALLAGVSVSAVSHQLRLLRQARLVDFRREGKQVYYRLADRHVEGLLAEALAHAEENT

Molecule: C[S+](CC[C@H](N)C(=O)O)C[C@H]1O[C@@H](n2cnc3c(N)ncnc32)[C@H](O)[C@@H]1O (some centres unmarked) [SAM]
- coupled colorimetric SAH-release methyltransferase assay, 510 nm; products by GC (TtArsM (TTC0109)): formation of S-adenosylhomocysteine (SAH) from SAM after transfer of methyl group(s) on the substrate

Molecule: O[As](O)O [arsenite]
- fold decrease in complex band intensity (TtSmtB-TtArsM complex): up to 3

Molecule: O=[As](O)(O)O [arsenate]
- fold decrease in complex band intensity (TtSmtB-TtArsM complex; with arsenate): up to 3

Molecule: GGAAGGGGAAGCGGTGTTTCTCGCCCCCGAGGCCAATCCCCCCTACGAGGAGGCGGACCAGGCGGGAAGGCGCGCGGGGAACCGCCCCGCCCTATACTTGGGGAGATG (double strand) [parsM]
- binding [1]: no binding

B1: Recombinant C-terminal His-tagged TtArsM (TTC0109) (enzyme, Thermus thermophilus HB27, UniProt Q72LF0 1-249, looked up)
chain: T1 sequence (Q72LF0 1-249)
notes: TtArsM (TTC0109) of Thermus thermophilus HB27; TtarsM gene PCR amplified from the genome and cloned NdeI/HindIII into pET30b(+); predicted mass 29.1 kDa; source: E. coli BL21-CodonPlus (DE3)-RIL, pET30b(+)/TtarsM, purified (HisTrap); not shown: His tag, C-terminal, kept
- stoichiometry N [2]: 2
- fold decrease of the co-IP band with arsenate (1:100 protein/arsenic ratio) against the complex without metal [3]: ≤ 3 fold
- fold decrease of the co-IP band with arsenite (1:100 protein/arsenic ratio) against the complex without metal [3]: ≤ 3 fold
- fold increase of the co-IP band with cadmium against the complex without metal [3]: ≤ 2 fold
